Six molecules from publication PMC9896810, “Crk proteins activate the Rap1 guanine nucleotide exchange factor C3G by segregated adaptor-dependent and -independent mechanisms” (Cell Communication and Signaling : CCS, 2023) can be followed below.

No end group written: not given here. fluorescein = N-terminal fluorescein probe

Assay [1] deals with T1, C3G (full-length, residues 4-1077) (human, UniProt Q13905-1 4-1077).
T1 construct: also called C3G WT; RapGEF1; source: E. coli BL21 (DE3), purified (IMAC, TEV digestion, reversed IMAC, SEC); not shown: His, N-terminal, cleaved; Halo, N-terminal, cleaved
T1 sequence (looked up): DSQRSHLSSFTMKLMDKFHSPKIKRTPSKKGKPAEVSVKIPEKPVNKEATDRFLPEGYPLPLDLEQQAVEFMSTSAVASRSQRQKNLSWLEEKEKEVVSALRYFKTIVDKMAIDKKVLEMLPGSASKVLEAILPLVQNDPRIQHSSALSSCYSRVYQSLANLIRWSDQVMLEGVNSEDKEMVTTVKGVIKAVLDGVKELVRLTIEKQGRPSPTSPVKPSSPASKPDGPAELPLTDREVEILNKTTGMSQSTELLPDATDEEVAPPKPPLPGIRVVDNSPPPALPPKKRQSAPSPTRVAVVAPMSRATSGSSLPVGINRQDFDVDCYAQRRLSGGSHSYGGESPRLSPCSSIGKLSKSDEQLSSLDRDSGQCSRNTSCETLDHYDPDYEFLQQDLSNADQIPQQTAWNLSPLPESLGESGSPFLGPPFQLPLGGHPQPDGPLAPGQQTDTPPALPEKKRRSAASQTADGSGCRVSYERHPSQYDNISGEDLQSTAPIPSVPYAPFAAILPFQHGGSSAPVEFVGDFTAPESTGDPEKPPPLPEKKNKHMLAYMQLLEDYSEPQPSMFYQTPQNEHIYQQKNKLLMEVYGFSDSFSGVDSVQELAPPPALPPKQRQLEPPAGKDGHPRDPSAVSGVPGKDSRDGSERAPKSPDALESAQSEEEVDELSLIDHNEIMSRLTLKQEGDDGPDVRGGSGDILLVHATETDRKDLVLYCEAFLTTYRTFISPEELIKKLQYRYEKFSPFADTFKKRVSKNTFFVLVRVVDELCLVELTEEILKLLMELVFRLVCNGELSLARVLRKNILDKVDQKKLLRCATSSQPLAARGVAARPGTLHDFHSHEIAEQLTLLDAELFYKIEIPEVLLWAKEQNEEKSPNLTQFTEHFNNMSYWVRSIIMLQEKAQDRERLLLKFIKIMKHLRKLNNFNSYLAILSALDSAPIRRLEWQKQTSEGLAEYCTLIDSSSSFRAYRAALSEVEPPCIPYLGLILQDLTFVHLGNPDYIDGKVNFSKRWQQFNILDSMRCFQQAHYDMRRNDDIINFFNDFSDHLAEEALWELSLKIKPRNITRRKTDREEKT
Kind of assay: ITC; C3G or pC3G in the cell titrated with the Crk protein, 25 °C, 300 mM NaCl, pH 7.5; global fit of three titrations with SEDPHAT, three symmetric binding sites, microscopic kd. Particulars: both partners purified.

Assay [2] addresses T2, C3G full-length wild type (human, isoform a, residues 4-1077) (human, UniProt Q13905-1 4-1077).
T2 sequence (looked up): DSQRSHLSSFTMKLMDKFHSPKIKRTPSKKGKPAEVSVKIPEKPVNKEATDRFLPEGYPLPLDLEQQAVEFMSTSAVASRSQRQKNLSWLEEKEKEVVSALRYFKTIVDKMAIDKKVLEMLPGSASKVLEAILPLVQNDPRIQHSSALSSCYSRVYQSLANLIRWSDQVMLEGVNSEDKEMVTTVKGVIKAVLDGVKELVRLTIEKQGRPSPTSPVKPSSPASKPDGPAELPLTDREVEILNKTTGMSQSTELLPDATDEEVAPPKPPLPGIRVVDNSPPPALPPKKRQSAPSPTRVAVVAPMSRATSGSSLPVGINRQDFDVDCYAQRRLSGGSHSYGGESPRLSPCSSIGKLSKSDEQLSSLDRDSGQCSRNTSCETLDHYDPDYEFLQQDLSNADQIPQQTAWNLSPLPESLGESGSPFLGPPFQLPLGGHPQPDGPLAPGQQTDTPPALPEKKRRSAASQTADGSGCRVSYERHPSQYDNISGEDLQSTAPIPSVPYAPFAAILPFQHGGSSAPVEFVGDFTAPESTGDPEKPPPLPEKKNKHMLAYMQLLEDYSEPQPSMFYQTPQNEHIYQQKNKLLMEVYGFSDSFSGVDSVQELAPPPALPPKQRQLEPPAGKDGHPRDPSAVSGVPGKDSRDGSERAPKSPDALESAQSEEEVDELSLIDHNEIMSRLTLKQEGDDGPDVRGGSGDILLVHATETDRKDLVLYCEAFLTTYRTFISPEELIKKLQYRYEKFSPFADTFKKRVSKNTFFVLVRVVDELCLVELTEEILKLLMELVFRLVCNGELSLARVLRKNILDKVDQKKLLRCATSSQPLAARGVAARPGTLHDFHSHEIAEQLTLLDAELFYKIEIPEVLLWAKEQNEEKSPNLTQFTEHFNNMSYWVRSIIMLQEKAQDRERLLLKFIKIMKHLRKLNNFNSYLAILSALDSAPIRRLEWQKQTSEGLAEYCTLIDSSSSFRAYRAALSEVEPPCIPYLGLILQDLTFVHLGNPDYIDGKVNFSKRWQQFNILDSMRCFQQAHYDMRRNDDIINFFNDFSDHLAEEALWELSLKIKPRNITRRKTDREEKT
Briefly: cell-based or functional assay.

In assay [3] the target is T3, Src-phosphorylated C3G (pC3G), wild type (human, UniProt Q13905-1 4-1077, phosphotyrosines (phosphorylated in vitro by Src; sites not stated)).
T3 sequence (looked up): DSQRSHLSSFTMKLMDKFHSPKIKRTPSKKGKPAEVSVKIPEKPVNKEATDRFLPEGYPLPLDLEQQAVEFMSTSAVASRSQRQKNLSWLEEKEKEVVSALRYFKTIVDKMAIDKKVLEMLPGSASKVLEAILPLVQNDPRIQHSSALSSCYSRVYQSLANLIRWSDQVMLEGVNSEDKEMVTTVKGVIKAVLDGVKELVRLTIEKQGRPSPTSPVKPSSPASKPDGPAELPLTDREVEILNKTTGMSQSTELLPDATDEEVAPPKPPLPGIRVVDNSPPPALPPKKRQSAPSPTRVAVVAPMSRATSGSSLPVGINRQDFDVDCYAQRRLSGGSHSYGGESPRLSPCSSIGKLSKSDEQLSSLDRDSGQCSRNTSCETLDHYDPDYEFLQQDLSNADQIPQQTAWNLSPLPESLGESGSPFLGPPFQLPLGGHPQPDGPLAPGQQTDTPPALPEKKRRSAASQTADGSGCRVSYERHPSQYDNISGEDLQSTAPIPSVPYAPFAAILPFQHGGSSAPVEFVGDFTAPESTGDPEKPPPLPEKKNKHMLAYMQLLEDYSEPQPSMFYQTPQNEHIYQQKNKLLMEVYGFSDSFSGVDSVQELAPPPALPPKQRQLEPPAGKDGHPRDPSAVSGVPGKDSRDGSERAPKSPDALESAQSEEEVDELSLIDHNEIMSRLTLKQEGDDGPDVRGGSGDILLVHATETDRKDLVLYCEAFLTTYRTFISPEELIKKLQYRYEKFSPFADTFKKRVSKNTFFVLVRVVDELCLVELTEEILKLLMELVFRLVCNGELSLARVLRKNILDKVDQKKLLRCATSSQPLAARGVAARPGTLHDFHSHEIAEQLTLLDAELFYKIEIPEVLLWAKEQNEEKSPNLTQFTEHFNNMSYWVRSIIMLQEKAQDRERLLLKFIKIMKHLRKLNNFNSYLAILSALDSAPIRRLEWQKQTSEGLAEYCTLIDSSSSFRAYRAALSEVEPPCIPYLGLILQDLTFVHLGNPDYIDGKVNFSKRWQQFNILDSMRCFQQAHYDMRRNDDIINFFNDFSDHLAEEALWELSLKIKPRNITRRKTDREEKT
Briefly: cell-based or functional assay.

A further assay addresses T4, CrkL (full-length) (human, UniProt P46109 1-303).
T4 construct: human CrkL, residues 1-303, in pETEV15b; also called Crk-like protein; source: E. coli BL21 (DE3), purified (IMAC, TEV digestion, SEC); not shown: His, N-terminal, cleaved
Briefly: fluorescence polarisation; fluorescein-labelled peptide at 0.2 µM titrated with CrkL or CrkL W160S; 20 mM Tris-HCl, 150 mM NaCl, pH 7.5, 0.1 mg/ml BSA; 1:1 binding model; apparent kd. Particulars: both partners purified. (Polarisation of emitted light reports the rotation of a fluorescent probe.)

A further assay deals with T5, CrkL-W160S (human, UniProt P46109 1-303, W160S).
T5 construct: human CrkL, residues 1-303, point mutant W160S, in pETEV15b; source: E. coli BL21 (DE3), purified (IMAC, TEV digestion, SEC); not shown: His, N-terminal, cleaved
The assay is described as above. Particulars: both partners purified.

T4 sequence (P46109 whole entry, the tested form may be a part): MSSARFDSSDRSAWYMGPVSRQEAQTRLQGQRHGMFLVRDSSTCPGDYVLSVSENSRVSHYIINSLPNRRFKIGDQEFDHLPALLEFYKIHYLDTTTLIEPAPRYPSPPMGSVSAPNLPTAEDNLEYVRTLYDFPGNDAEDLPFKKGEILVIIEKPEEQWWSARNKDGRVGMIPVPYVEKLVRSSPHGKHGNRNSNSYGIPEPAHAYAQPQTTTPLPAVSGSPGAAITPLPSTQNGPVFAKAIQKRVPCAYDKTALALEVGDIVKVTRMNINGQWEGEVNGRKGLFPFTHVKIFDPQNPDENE
T5 sequence (P46109 whole entry W160S, the tested form may be a part): as the sequence (P46109 whole entry, the tested form may be a part) above, with W160S counted along it

B1: CrkL-SH3N-SH3C (domain or fragment, human, UniProt P46109 125-303, looked up)
chain: LEYVRTLYDFPGNDAEDLPFKKGEILVIIEKPEEQWWSARNKDGRVGMIPVPYVEKLVRSSPHGKHGNRNSNSYGIPEPAHAYAQPQTTTPLPAVSGSPGAAITPLPSTQNGPVFAKAIQKRVPCAYDKTALALEVGDIVKVTRMNINGQWEGEVNGRKGLFPFTHVKIFDPQNPDENE
notes: human CrkL, SH3N-SH3C, residues 125-303, in pETEV15b; source: E. coli BL21 (DE3), purified (IMAC, TEV digestion, SEC); not shown: His, N-terminal, cleaved
Molecule B1 had a Kd in assay [1] of 1.1 µM.

B2: CrkL-SH3N-SH3C (residues 125-303) (domain or fragment, human, UniProt P46109 125-303, looked up)
chain: LEYVRTLYDFPGNDAEDLPFKKGEILVIIEKPEEQWWSARNKDGRVGMIPVPYVEKLVRSSPHGKHGNRNSNSYGIPEPAHAYAQPQTTTPLPAVSGSPGAAITPLPSTQNGPVFAKAIQKRVPCAYDKTALALEVGDIVKVTRMNINGQWEGEVNGRKGLFPFTHVKIFDPQNPDENE
Turning to B2, in assay [2], the “AC50 of the dose-response activation of the GEF activity of C3G (1 µM) on Rap1b:mant-dGDP” value stood at 19.8 µM and the “kmax of the dose-response activation of the GEF activity of C3G (1 µM) on Rap1b:mant-dGDP” value was determined as 12900 M⁻¹ s⁻¹. Also, in assay [3], the “AC50 of the dose-response activation of the GEF activity of pC3G (0.2 µM) on Rap1b:mant-dGDP” value was 4.5 µM and the “kmax of the dose-response activation of the GEF activity of pC3G (0.2 µM) on Rap1b:mant-dGDP” value came out at 0.0134 s^-1 µM^-1.

B3: P1 (Fluo-280-293) (peptide)
peptide: fluorescein-NGPPPALPPKKRQS
notes: P1 Pro-rich motif of human C3G, residues 280-293; also called P1 peptide of C3G; source: synthetic peptide (custom synthesized, Thermo Scientific)
B3: the Kd with CrkL (full-length) was 1.4 µM; with CrkL-W160S, roughly 490 µM.

B4: P4 (Fluo-605-618) (peptide)
peptide: fluorescein-LAPPPALPPKQRQL
notes: P4 Pro-rich motif of human C3G, residues 605-618; also called P4 peptide of C3G; source: synthetic peptide (custom synthesized, Thermo Scientific)
Regarding B4, the Kd is 3 µM with CrkL (full-length) and roughly 415 µM with CrkL-W160S.

B5: P3 (Fluo-537-550) (peptide)
peptide: fluorescein-PEKPPPLPEKKNKH
notes: P3 Pro-rich motif of human C3G, residues 537-550; also called P3 peptide of C3G; source: synthetic peptide (custom synthesized, Thermo Scientific)
B5: the Kd was 2.2 µM with CrkL (full-length) and roughly 425 µM with CrkL-W160S.

B6: P2 (Fluo-450-463) (peptide)
peptide: fluorescein-TDTPPALPEKKRRS
notes: P2 Pro-rich motif of human C3G, residues 450-463; also called P2 peptide of C3G; source: synthetic peptide (custom synthesized, Thermo Scientific)
With B6, the figures for the Kd with CrkL (full-length) and with CrkL-W160S were 2.2 µM and greater than 4000 µM, respectively.
